Measurements reported in PMC10904395, “The Deinococcus protease PprI senses DNA damage by directly interacting with single-stranded DNA”.

Molecular target: T1, DG-PprI patch 1 mutant (Deinococcus geothermalis, UniProt Q1J1D6 1-289, R85A;R207A;R267A)
T1 sequence: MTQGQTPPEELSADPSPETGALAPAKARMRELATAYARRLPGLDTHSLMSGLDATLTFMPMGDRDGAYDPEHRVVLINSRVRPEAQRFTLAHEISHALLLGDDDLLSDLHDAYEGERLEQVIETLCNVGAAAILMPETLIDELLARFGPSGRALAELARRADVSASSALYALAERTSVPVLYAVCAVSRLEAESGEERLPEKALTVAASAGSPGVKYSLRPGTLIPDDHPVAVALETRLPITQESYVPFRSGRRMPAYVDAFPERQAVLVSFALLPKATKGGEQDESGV
Assay: EMSA; EMSA: 150 mM NaCl, 20 mM Tris-HCl pH 8.0, 0.1 mg/ml BSA, 0.1 uM FAM-labeled nucleic acid, 0/1/2 uM protein, room temperature 30 min, 10% native PAGE in 1x TB
Details: protein: recombinant; label: 5' FAM

B1: 35nt ssDNA (ssDNA)
DNA: CGCTCTTCGCCATTCTCTTGAAGTTTCAAACTTGG
binding result: no binding
